Here are results for one molecule from publication PMC7933954 (EMBO Molecular Medicine, 2021).

This assay addresses T1, mouse DR5 (Mus musculus (4T1: BALB/c; MC38: …, UniProt Q9QZM4).
T1 construct: mouse DR5, endogenous on the surface of 4T1 and MC38 cells; also called muDR5; murine DR5; source: endogenous, on murine 4T1 and MC38 cells
As to the kind of experiment: flow cytometry on cells; antibody on murine 4T1 and MC38 cells, FACS histograms. Conditions: one partner purified. In general terms: A flow cytometer gives signals particle by particle.

T1 sequence (Q9QZM4 53-381): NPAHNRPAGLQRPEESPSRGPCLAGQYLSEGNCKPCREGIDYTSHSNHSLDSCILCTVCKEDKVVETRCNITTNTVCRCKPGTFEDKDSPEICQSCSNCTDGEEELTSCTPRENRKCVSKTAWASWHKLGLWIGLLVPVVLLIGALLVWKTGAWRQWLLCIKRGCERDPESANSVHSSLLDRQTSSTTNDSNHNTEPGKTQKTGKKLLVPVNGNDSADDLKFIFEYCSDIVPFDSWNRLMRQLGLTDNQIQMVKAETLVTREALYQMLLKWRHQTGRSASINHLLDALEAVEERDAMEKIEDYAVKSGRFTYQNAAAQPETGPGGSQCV

B1: MD5‐1 (antibody, V domains shown)
VH: QIQLQESGPGLVKPAQSLSLTCSITGFPITAGGYWWTWIRQFPGQKLEWMGYIYSSGSTNYNPSIKSRISITRDTAKNQFFLQLNSVTTEEDTAIYYCARAGTSYSGFFDSWGQGTLVTVSS
VL: DIQVTQSPSLLSASFGDKVTINCLVTQDITYYLSWYQQKSGQPPTLLIYNGNSLQSGVPSRFSGQYSGRTFTLSLSSLEPEDAGTYYCLQHYSVPFTFGGGTRLEIK
notes: heavy chain of MD5‐1; light chain of MD5‐1; for efficacy studies it is said to carry IgG1 KO‐Fc and S267E mutations; also called anti‐mouse DR5 antibody (MD5‐1); murine DR5 agonist MD5‐1
For the molecule B1, the binding result is given as “binds”.
